In the supplement of paper PMC10724198:
± gives the standard deviation of the averaged measurements.

Assays:
[1] = system: Saccharomyces cerevisiae; assay: protein stability index of tFT-peptide fusion (C-terminal peptide) (PSI (0-1 scale)); higher = more stable (slower turnover)
Experimental: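 MPS profiling in S. cerevisiae of the tFT-X12 degron library: putative degron peptides plus stable controls, 12 aa, fused to the C-terminus of a sfGFP-mCherry timer. Cells are FACS-sorted into 8 mCherry/sfGFP bins and deep-sequenced. PSI runs from 0 (unstable) to 1 (stable). Backgrounds are wild type, das1Δ and doa10Δ at 30 °C, and wild type, das1Δ, cdc34-1 and cdc53-1 at 37 °C; 2-3 technical replicates each.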

[2] = system: Saccharomyces cerevisiae; assay: as above; settings: genetic background: wild type; temperature: 30 C
[3] = genetic background: cdc34-1, temperature: 37 C
[4] = genetic background: cdc53-1, temperature: 37 C
[5] = genetic background: das1 deletion, temperature: 30 C
[6] = genetic background: das1 deletion, temperature: 37 C
[7] = genetic background: doa10 deletion, temperature: 30 C
[8] = genetic background: wild type, temperature: 30 C
[9] = genetic background: wild type, temperature: 37 C
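Further: PSI is a weighted mean of sequencing reads over stability bins, variants kept only with over 10 reads, mCherry proximal and sfGFP distal, peptide attached via GGGS linker.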

Sequence | protein stability index [1, 3] | protein stability index [1, 4] | protein stability index [1, 5] | protein stability index [1, 6] | protein stability index [1, 7] | protein stability index [1, 8] | protein stability index [1, 9] | protein stability index [2]
FLAFLEPRVCCA | 0.23 ± 0.037 | 0.231 ± 0.036 | 0.246 ± 0.019 | 0.354 ± 0.0058 | 0.21 ± 0.0091 | 0.228 ± 0.031 | 0.33 ± 0.029 | 0.343 ± 0.013
SPRSIALLHLFS | 0.648 ± 0.063 | 0.708 ± 0.051 | 0.655 ± 0.02 | 0.705 ± 0.062 | 0.154 ± 0.017 | 0.213 ± 0.031 | 0.327 ± 0.024 | 0.3 ± 0.044
LCWRLCRFWWVG | 0.75 ± 0.068 | 0.8494 ± 0.0062 | 0.691 ± 0.033 | 0.829 ± 0.014 | 0.255 ± 0.0076 | 0.254 ± 0.024 | 0.424 ± 0.013 | 0.363 ± 0.016
VTWNFIVYVCCF | 0.164 ± 0.0058 | 0.204 ± 0.0029 | 0.209 ± 0.016 | 0.25776 ± 1.6e-05 | 0.189 ± 0.017 | 0.19 ± 0.014 | 0.219 ± 0.0045 | 0.283 ± 0.011
FFFCFFIFCFSL | 0.327 ± 0.005 | 0.409 ± 0.025 | 0.333 ± 0.026 | 0.463 ± 0.013 | 0.335 ± 0.046 | 0.324 ± 0.015 | 0.396 ± 0.036 | 0.3698 ± 0.0032
WYAGIVFTRVWM | 0.54 ± 0.01 | 0.611 ± 0.026 | 0.487 ± 0.015 | 0.654 ± 0.03 | 0.466 ± 0.015 | 0.482 ± 0.02 | 0.622 ± 0.013 | 0.5 ± 0.0095
YGAGDLTKYFIV | 0.637 ± 0.037 | 0.684 ± 0.046 | 0.607 ± 0.0086 | 0.726 ± 0.039 | 0.114 ± 0.0065 | 0.122 ± 0.028 | 0.174 ± 0.034 | 0.106 ± 0.016
LIIVFGFTSILR | 0.441 ± 0.02 | 0.572 ± 0.018 | 0.36 ± 0.043 | 0.526 ± 0.018 | 0.355 ± 0.015 | 0.328 ± 0.037 | 0.509 ± 0.048 | 0.419 ± 0.093
APPFPSLSSFAP | 0.679 ± 0.039 | 0.744 ± 0.038 | 0.7 ± 0.016 | 0.737 ± 0.03 | 0.693 ± 0.032 | 0.706 ± 0.04 | 0.718 ± 0.026 | 0.717 ± 0.018
RGGWVVVLGCVG | 0.634 ± 0.034 | 0.6292 ± 0.0044 | 0.482 ± 0.029 | 0.6417 ± 0.0043 | 0.468 ± 0.021 | 0.486 ± 0.018 | 0.635 ± 0.036 | 0.501 ± 0.016
RVDVSVLWNRRS | 0.655 ± 0.045 | 0.75995 ± 0.0007 | 0.669 ± 0.0086 | 0.744 ± 0.028 | 0.284 ± 0.026 | 0.312 ± 0.038 | 0.511 ± 0.013 | 0.4857 ± 0.0047
RAQQRVKERYIE | 0.74 ± 0.046 | 0.729 ± 0.014 | 0.669 ± 0.022 | 0.7311 ± 0.0059 | 0.517 ± 0.058 | 0.581 ± 0.067 | 0.69 ± 0.0077 | 0.432 ± 0.0045
IPLGLTLVQCLY | 0.614 ± 0.03 | 0.61 ± 0.029 | 0.491 ± 0.042 | 0.60744 ± 0.00017 | 0.4357 ± 0.00058 | 0.477 ± 0.009 | 0.576 ± 0.0069 | 0.53 ± 0.053
CLYATQFWGRYG | 0.69 ± 0.062 | 0.74 ± 0.019 | 0.629 ± 0.025 | 0.7737 ± 0.005 | 0.229 ± 0.0079 | 0.258 ± 0.033 | 0.6 ± 0.014 | 0.434 ± 0.07
GLGWLLFVVERV | 0.457 ± 0.019 | 0.499 ± 0.046 | 0.359 ± 0.037 | 0.552 ± 0.011 | 0.34 ± 0.018 | 0.345 ± 0.025 | 0.511 ± 0.027 | 0.453 ± 0.032
ELTYVYRTALIA | 0.152 ± 0.004 | 0.157 ± 0.0057 | 0.204 ± 0.016 | 0.276 ± 0.0057 | 0.0966 ± 0.011 | 0.105 ± 0.014 | 0.0995 ± 0.017 | 0.183 ± 0.045
WFYLLFVLFGLV | 0.56 ± 0.026 | 0.614 ± 0.012 | 0.438 ± 0.033 | 0.542 ± 0.0065 | 0.409 ± 0.027 | 0.417 ± 0.017 | 0.51 ± 0.024 | 0.426 ± 0.023
LERLHSVLLLTS | 0.246 ± 0.0054 | 0.254 ± 0.0079 | 0.223 ± 0.036 | 0.379 ± 0.0057 | 0.165 ± 0.019 | 0.217 ± 0.027 | 0.324 ± 0.011 | 0.284 ± 0.021
VNFVLTLYPYLV | 0.512 ± 0.024 | 0.577 ± 0.019 | 0.507 ± 0.024 | 0.603 ± 0.02 | 0.275 ± 0.016 | 0.278 ± 0.02 | 0.4472 ± 0.00073 | 0.378 ± 0.014
